Among the data in the supplement of paper PMC10126150 are switch fluorescence ratio values, retold here.

± gives the standard deviation of the averaged measurements.
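Also: ATP exposure 15 min at 22 °C before imaging.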

This data set relates to ATP. The experiment in a line: switch fluorescence ratio, 500 uM ATP over buffer (Cy3 cluster intensity, sum of 5 cycles each) (fold (ratio)); higher = stronger signal-on switching upon ATP binding; sequences stand for … in TCGTCGGCAGCGTCAGATGTGTATAAGAGACAGTTTTTTTTTTTTTTTTTTTTTTTTT…TC. The conditions noted are these: aptamer strand: ATP DNA aptamer (quencher-CACCTGGGGGAGTATTGCGGAGGAAGG + anchor), 100 nM annealed; ATP concentration: 500 uM. The procedure, abridged: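 Five buffer/ATP imaging cycles were run on Cy3-labelled switching-strand clusters on a modified Illumina MiSeq flow-cell, with NaOH stripping and re-annealing between cycles. In each cycle, clusters annealed to 100 nM quencher-labelled ATP aptamer were imaged in selection buffer, then after 15 min with 500 uM ATP at 22 °C. Per cluster, the fluorescence ratio is summed target-cycle over summed buffer-cycle Cy3 intensity, averaged per switch-domain sequence. Only clusters within 100-1000 RFU were kept.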
As to CGTAATAAGG, the switch fluorescence ratio is 0.98799 ± 0.00022.

In the case of TCGAGAGGGT, the switch fluorescence ratio was determined as 0.996 ± 0.015.

In the case of TCACGGGGGA, the switch fluorescence ratio turned out to be 1.03 ± 0.039.

With AGCTTTTTTA, the switch fluorescence ratio was determined as 1.02 ± 0.015.

As for TGAGTTTGCG, the switch fluorescence ratio turned out to be 1.01 ± 0.075.

TGCTCTTTTT: the switch fluorescence ratio was determined as 1 ± 0.019.

In the case of AGAACCATCG, the switch fluorescence ratio was 1.05 ± 0.016.

On to CTGGTTATTT, for which the switch fluorescence ratio worked out at 1.04 ± 0.076.

CCTGACTTTC: the switch fluorescence ratio was determined as 1.11 ± 0.045.

For AATGGTCGGC, the switch fluorescence ratio is 0.996 ± 0.011.

As to GGATATGTGG, the switch fluorescence ratio stood at 0.99 ± 0.025.

For CAGTTCACCT, the switch fluorescence ratio was 1.082 ± 0.0063.

With AAAAACGCTG, the switch fluorescence ratio is 1.039 ± 0.0093.

For GCTACTTTGC, the switch fluorescence ratio was determined as 1.037 ± 0.0045.

On to ATCGATTGT, for which the switch fluorescence ratio turned out to be 0.973 ± 0.028.

Turning to ATTTAAGCTC, the switch fluorescence ratio amounted to 0.987 ± 0.024.

As to ATGTTCTTCT, the switch fluorescence ratio was determined as 0.982 ± 0.018.

In the case of AGGCGCAAGC, the switch fluorescence ratio amounted to 1.07 ± 0.048.

As for TCTTACGGGG, the switch fluorescence ratio was 1.003 ± 0.01.

As for ACGGGGAGGT, the switch fluorescence ratio was 0.981 ± 0.04.

In the case of TATTAATCGA, the switch fluorescence ratio was determined as 1 ± 0.016.

In the case of ATGGGCTGCT, the switch fluorescence ratio is 1.05 ± 0.062.

Regarding AGTCGTGTGT, the switch fluorescence ratio came out at 0.971 ± 0.046.

Take GGGCACATCC: the switch fluorescence ratio was 1.02 ± 0.025.

With CCGCTCAGTT, the switch fluorescence ratio was 1.355 ± 0.0058.

Take CGATTAAAAT: the switch fluorescence ratio is 0.986 ± 0.021.

With ATACATTTGG, the switch fluorescence ratio was 0.999 ± 0.014.

Turning to ACTATGGGGC, the switch fluorescence ratio is 1.01 ± 0.081.

In the case of GACTCTTGAA, the switch fluorescence ratio is 0.995 ± 0.071.

As for ATTGGTGGTT, the switch fluorescence ratio amounted to 1 ± 0.074.

Take CGTCGGAGGG: the switch fluorescence ratio amounted to 0.977 ± 0.013.

As to TATTAATTGC, the switch fluorescence ratio came out at 0.995 ± 0.025.

Consider ACTTGATCGC, for which the switch fluorescence ratio amounted to 1.03 ± 0.03.

Consider GAAGCCGTTT, for which the switch fluorescence ratio was determined as 1.01 ± 0.039.

Take AGAGACGGGG: the switch fluorescence ratio amounted to 1.02 ± 0.013.

As to AGCAAGTCAG, the switch fluorescence ratio came to 1.07 ± 0.013.

For CTCATGAAAC, the switch fluorescence ratio came out at 1.01 ± 0.046.

With AAGGGACAGC, the switch fluorescence ratio turned out to be 1.03 ± 0.021.

Turning to TTGCTTGTTG, the switch fluorescence ratio came out at 1.02 ± 0.034.

Take TTTGGGCATT: the switch fluorescence ratio was found to be 1.04 ± 0.035.

As to CGTTTGCCGT, the switch fluorescence ratio is 0.985 ± 0.024.

Turning to GGGGTACGTA, the switch fluorescence ratio is 1 ± 0.08.

For the sequence ATATCGGGGT, the switch fluorescence ratio came to 1.001 ± 0.0045.

Regarding ATGTTTCGC, the switch fluorescence ratio is 0.999 ± 0.045.

Regarding ATGTTAAAAG, the switch fluorescence ratio came to 1.01 ± 0.035.

TAAGTTTTGC: the switch fluorescence ratio worked out at 0.979 ± 0.038.

Regarding CCGGGGGAAC, the switch fluorescence ratio amounted to 1.14 ± 0.09.

Consider AGTCGGTAGG, for which the switch fluorescence ratio stood at 1.02 ± 0.012.

CGGGGGGTCT: the switch fluorescence ratio is 0.999 ± 0.04.

In the case of TTAGTGTCTT, the switch fluorescence ratio is 0.976 ± 0.025.

For ATTAGTTATA, the switch fluorescence ratio turned out to be 0.975 ± 0.029.

For AAGTTCGTTT, the switch fluorescence ratio amounted to 0.986 ± 0.026.

On to TCGACTGGGG, for which the switch fluorescence ratio worked out at 1 ± 0.034.

As for GGATTACCCT, the switch fluorescence ratio was determined as 1.04 ± 0.015.

As to GTATGATGTG, the switch fluorescence ratio was 0.9915 ± 0.008.

Consider AATGGCTAGG, for which the switch fluorescence ratio was 1.01 ± 0.014.

For the sequence AACTAATTTT, the switch fluorescence ratio came to 0.9961 ± 0.0024.

Consider AAGGTGCAAG, for which the switch fluorescence ratio was determined as 1.03 ± 0.053.

As for TTGAAGGGTT, the switch fluorescence ratio stood at 0.9978 ± 0.0033.

With TCGGCTATG, the switch fluorescence ratio amounted to 1.12 ± 0.15.

Regarding ATTCCATGGT, the switch fluorescence ratio is 0.9909 ± 0.0052.

For TATTTTATAT, the switch fluorescence ratio came out at 0.943 ± 0.021.

As to AAAAGGGTCG, the switch fluorescence ratio was 1.05 ± 0.087.

For the sequence TGGGGGGAG, the switch fluorescence ratio stood at 1.0137 ± 0.00093.

With TTTGGGACAT, the switch fluorescence ratio stood at 1.01 ± 0.025.

As for AACCGCGGGT, the switch fluorescence ratio came out at 1.03 ± 0.018.

As to TTATTGTGCT, the switch fluorescence ratio turned out to be 0.983 ± 0.031.
